Experimental findings from PMC6312924 are described below.

The target of test [1] is HA-tagged Atp1a3 T705D (mouse) (UniProt Q8VCE0). Kind of test: co-IP; HEK 293T cells co-transfected with HA-tagged Atp1a3 (WT, TA or TD) and YFP-β1 or YFP-β2; α3 precipitated with anti-HA beads (clone 3F10) 2 h at 4°C in IP buffer (20 mM Tris pH 8.0, 150 mM NaCl, 1% NP40, 10% glycerol); β detected with a GFP antibody; band densitometry normalised to WT.
Test [2] concerns the target HA-tagged Atp1a3 T705A (mouse) (UniProt Q8VCE0). The description is as above.

In test [1], “YFP-tagged Na,K-ATPase β1 subunit (rat) (from UniProt P07340 1-304) (natural protein)” had a co-precipitated higher (complex-glycan) β band, relative intensity normalized to WT (normalized to WT) of 6.59 and a co-precipitated lower (intracellular) β band, relative intensity normalized to WT (normalized to WT) of 95. In test [2], the co-precipitated higher (complex-glycan) β band, relative intensity normalized to WT (normalized to WT) is 58.3 and the co-precipitated lower (intracellular) β band, relative intensity normalized to WT (normalized to WT) was 101.
On the same counts, the results for “YFP-tagged Na,K-ATPase β2 subunit (human) (from UniProt P14415 1-290) (natural protein)” are 2.81, 80.5, 16.3 and 82.7.
